The chains are these.
B1: fPOP1-H2 (peptide)
peptide: {FITC′}-[βAla]EELKKFK[Nle]KLGTV-NH2
B2: fSAH-POP1-12 (peptide)
peptide: {FITC′}-[βAla]Q[S5]LRK[S5]QWKLWTA-NH2
modifications: staple 3-7
B3: fSAH-POP1-4 (peptide)
peptide: AEXLKKXKXKLGTV
modifications: N-terminal fluorescein (FITC) on β-alanine; S5 = (S)-2-(4-pentenyl)alanine residues covalently linked (hydrocarbon staple); made on Rink amide resin
B4: fSAH-POP1-5 (peptide)
peptide: AQXLKKXKXKLGTA
modifications: N-terminal fluorescein (FITC) on β-alanine; S5 = (S)-2-(4-pentenyl)alanine residues covalently linked (hydrocarbon staple); made on Rink amide resin
B5: fSAH-POP1-13 (peptide)
peptide: {FITC′}-[βAla]Q[S5]LRR[S5]QWKLWTA-NH2
modifications: staple 3-7
B6: fSAH-POP1-16 (peptide)
peptide: {FITC′}-[βAla]Q[S5]LRR[S5]QWKLWTS-NH2
modifications: staple 3-7
B7: fSAH-POP1-6 (peptide)
peptide: XQXLKKXKXKLWTA
modifications: N-terminal fluorescein (FITC) on β-alanine; S5 = (S)-2-(4-pentenyl)alanine residues covalently linked (hydrocarbon staple); made on Rink amide resin
B8: fSAH-POP1-10 (peptide)
peptide: AQXLRKXQXKLWTA
modifications: not fully specified; N-terminal fluorescein (FITC) on β-alanine; S5 = (S)-2-(4-pentenyl)alanine residues covalently linked (hydrocarbon staple); norleucine (NL) at the position of M25 of POP1; made on Rink amide resin

Bridge positions count the residues as written; N and C are the ends. Square brackets hold non-standard residues; d marks the D form. Primed or numbered codes have the meaning given here. S5 = C=CCCC[C@](C)(N)C(=O)O; Nle = CCCC[C@H](N)C(=O)O; FITC′ = fluorescein; βAla = NCCC(=O)O

T2 sequence (Q9ULZ3 1-106): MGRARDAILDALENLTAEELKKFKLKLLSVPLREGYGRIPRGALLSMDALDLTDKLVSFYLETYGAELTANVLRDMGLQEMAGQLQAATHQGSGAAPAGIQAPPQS

In one assay the target is T1, human NLRP3^PYD (residues 3-110, C-terminal 6 x histidine) (human, UniProt Q96P20 3-110).
T1 chain: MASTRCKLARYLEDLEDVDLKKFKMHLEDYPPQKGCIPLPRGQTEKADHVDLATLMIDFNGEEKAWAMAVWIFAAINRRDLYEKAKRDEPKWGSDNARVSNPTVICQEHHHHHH
Put plainly: FP.
Regarding B1, the Kd (as a rule, the free concentration of one partner at which half of the binding sites on the other are occupied at equilibrium, for simple one-to-one binding) is 9.2 µM.

The next assay concerns the target T2, human N-terminally GST tagged ASC^PYD (human, UniProt Q9ULZ3 1-106). Put plainly: FP.
B2 showed a Kd of 0.59 µM.

B3 showed a Kd above 10 µM.

For the molecule B4, the Kd is above 10 µM.

In turn, B1 gave a Kd above 10 µM.

The target in the next assay is GST-NLRP3PYD. Put plainly: fluorescence anisotropy. A general note: Polarisation of emitted light reports the rotation of a fluorescent probe.
B5 returned a Kd of 12 µM.

Molecule B2 returned a Kd of 20 µM.

B6 displayed a dissociation constant Kd of 15 µM.

In the case of B3, binding was characterised by a dissociation constant (Kd) of 32 µM.

On to B7, for which binding was characterised by a dissociation constant (Kd) of 43 µM.

B4 had an equilibrium dissociation constant (Kd) of 30 µM.

Turning to B1, the Kd was found to be 27 µM.

Regarding B8, the Kd came out at 31 µM.

The target in another assay is T2, human N-terminally GST tagged ASC^PYD. Put plainly: fluorescence anisotropy.
B3 gave a Kd above 56 µM.

B7: the Kd was above 56 µM.

B4 came in with a Kd above 56 µM.

In turn, B1 displayed a Kd above 56 µM.

Molecule B8 had a Kd above 56 µM.

The record behind these values is patent US20250115641A1 (published 2025).
